For assay [1], the target named is Thra, P63059-2.
Assay [2] addresses Thra, P63059-2. This is another data set of the same source.

Thra, P63059-2, sequence (P63059 other isoform, or with tags, fused parts or gaps): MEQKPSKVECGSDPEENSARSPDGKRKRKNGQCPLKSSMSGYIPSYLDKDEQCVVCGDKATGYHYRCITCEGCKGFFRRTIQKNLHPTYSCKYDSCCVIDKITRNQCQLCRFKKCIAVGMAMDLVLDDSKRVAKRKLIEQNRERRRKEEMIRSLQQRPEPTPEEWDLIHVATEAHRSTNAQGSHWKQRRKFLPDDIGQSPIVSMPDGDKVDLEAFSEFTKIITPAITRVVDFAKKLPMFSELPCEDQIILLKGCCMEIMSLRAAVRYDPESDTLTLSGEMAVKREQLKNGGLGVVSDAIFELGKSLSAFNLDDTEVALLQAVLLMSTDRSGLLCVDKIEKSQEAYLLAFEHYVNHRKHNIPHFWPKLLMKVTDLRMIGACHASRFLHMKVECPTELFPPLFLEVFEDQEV
Transforming acidic coiled-coil-containing protein 1 (Homo sapiens), O75410-9 L580A;I581A, sequence (O75410 other isoform, or with tags, fused parts or gaps L580A;I581A): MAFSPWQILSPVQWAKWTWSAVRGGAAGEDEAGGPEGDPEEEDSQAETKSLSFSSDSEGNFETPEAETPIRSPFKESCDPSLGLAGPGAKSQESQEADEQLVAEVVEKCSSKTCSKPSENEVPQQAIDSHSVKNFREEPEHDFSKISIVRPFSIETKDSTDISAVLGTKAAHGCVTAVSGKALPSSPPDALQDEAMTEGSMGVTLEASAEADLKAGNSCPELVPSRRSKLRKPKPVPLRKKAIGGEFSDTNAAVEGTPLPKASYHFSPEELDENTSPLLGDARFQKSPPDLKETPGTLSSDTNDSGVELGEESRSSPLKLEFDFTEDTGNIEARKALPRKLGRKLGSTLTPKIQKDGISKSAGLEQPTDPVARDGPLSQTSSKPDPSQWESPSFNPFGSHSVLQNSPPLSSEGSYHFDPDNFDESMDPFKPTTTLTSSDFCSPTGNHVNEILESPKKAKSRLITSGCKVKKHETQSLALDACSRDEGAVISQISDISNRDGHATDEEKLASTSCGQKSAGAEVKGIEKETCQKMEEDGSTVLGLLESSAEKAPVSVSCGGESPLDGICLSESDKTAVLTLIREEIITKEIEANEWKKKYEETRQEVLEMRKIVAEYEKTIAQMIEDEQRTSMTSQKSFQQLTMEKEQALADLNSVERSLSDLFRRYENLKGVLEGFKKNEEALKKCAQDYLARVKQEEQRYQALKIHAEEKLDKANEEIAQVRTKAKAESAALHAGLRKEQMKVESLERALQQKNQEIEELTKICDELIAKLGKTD
Thra, P63059-1, sequence (P63059 whole entry): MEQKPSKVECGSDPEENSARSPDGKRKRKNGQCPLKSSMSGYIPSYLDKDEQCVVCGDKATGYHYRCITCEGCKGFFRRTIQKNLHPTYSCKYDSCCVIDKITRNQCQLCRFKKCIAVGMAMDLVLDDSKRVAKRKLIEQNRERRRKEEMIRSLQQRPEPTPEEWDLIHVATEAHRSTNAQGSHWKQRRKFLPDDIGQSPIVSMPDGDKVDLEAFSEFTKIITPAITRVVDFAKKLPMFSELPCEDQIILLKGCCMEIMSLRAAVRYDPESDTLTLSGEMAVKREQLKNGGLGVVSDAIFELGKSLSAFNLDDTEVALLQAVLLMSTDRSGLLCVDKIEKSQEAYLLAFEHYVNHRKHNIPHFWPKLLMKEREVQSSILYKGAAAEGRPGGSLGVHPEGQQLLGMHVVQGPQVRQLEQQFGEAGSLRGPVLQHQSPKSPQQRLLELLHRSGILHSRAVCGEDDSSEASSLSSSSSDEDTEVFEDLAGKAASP
Transforming acidic coiled-coil-containing protein 1 (Homo sapiens), O75410-10 L170A;I171A, sequence (O75410 other isoform, or with tags, fused parts or gaps L170A;I171A): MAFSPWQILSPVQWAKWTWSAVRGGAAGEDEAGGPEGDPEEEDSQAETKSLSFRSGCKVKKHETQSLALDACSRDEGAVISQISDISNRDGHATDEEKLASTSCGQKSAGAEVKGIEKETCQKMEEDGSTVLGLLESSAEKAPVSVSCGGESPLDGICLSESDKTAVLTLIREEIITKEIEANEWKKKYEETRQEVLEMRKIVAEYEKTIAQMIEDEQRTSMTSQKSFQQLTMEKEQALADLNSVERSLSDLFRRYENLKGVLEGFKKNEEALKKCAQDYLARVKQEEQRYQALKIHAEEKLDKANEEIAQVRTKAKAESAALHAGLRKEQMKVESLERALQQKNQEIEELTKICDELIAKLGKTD

For “Transforming acidic coiled-coil-containing protein 1 (Homo sapiens), O75410-9 L580A;I581A”, the “effect of a mutation on the interaction” value in the assay with Thra, P63059-2 [1] is reported as “decreasing interaction strength”; in the assay with Thra, P63059-1 it was “disrupting interaction strength”.

As to “Transforming acidic coiled-coil-containing protein 1 (Homo sapiens), O75410-10 L170A;I171A”, the “effect of a mutation on the interaction” value with Thra, P63059-2 [2] was “disrupting interaction strength”.

These data come from IntAct's records for PubMed 20078863.
